The experiment deals with 灭活非洲猪瘟病毒抗原 (非洲猪瘟全病毒). As to the kind of experiment: ELISA with whole ASFV, as in Fig. 6 (scFv coated, inactivated ASFV captured). A general note: In an ELISA, binding on a coated surface is turned into a signal by an enzyme label.

Drawing on patent CN112592401A, this text covers OD450nm for one molecule.

B1: 抗非洲猪瘟病毒的ScFv抗体VH-VLλ11 (scFv)
scFv: MEVKLVESGGGLVQPGGSLRLSCVGSEYEFRGSLIHWVRQAPGKGLEWLATICTTDPITEYADSVKGRFTISRDSSQNTAYLQMDSLRGEDTARYYCGVAFSYGGGCHRMDLRGQGVEVVVGGGGSGGMSQTVIQEPAMSVSPGGTVTLTCAFSSGSESTRKYPIRFQQTPGQPPRLLIYHTNSRPTGVPSRFSGAISGNKAALTITGAQAEDEADYFCSLYIRTYNVPFGGGTHLTVL
B1: the OD450nm turned out to be 1.12 OD450nm.
